Source: US20250066499A1 (SUNSHINE GUOJIAN PHARMACEUTICAL SHANGHAI, published 2025)

Tests used:
[1] = target: T1, CD73-ND-Y132A (human, UniProt P21589 27-317); test: ELISA; decline multiple of EC50 against CD73-ND
T1 construct: Alanine mutant of CD73-ND
T1 sequence: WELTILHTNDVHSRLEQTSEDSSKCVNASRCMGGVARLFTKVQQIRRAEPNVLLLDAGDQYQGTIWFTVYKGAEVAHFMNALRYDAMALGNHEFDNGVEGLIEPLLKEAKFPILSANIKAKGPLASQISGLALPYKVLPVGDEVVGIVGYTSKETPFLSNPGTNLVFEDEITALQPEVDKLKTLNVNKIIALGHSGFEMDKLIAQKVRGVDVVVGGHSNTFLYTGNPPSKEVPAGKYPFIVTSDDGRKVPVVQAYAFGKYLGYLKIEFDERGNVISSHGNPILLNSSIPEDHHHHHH
Experimental: (§1) The ELISA plates were coated with SA protein diluted to 1.5 μg/mL in coating buffer (50 mM carbonate coating buffer, pH 9.6) and incubated overnight at 4° C. The supernatant was discarded, and the plates were washed three times with PBST. Then, 5% skimmed milk powder prepared with PBS was added for blocking and the plates were incubated for 2 h at 37° C. After washing the plates once with PBST, CD73-biotin protein (prepared by biotinylating CD73-His protein according to the EZ-Link NHS-Biotin Reagent instructions) was diluted to 0.5 μg/mL and added at 100 μL/well for incubation at room temperature for 1 h. The plates were washed three times with PBST, and the prepared murine-derived monoclonal antibodies against human CD73 were serially diluted with 1% BSA buffer prepared with PBST and added to the ELISA plates at 100 μl/well. The plates were incubated at 37° C. for 1 h. After washing the plates three times with PBST, HRP-labeled goat anti-mouse IgG secondary antibody was added and the plates were incubated for 30 min at 37° C. After washing the plates three times with PBST, the residual droplets were patted dry on absorbent paper as much as possible. Then, 100 μl of TMB color developing solution was added to each well, and the plates were incubated in the dark at room temperature for 5 min for color development. Subsequently, 50 μl of 2M H₂SO₄ stop solution was added to each well to terminate the substrate reaction. The OD values were read at 450 nm using a multimode microplate reader to analyze the binding ability of the tested antibodies to the target antigen human CD73-His.
(§2) Referring to the experimental method in Example 3, the affinity of 48A11-HuV33 for various mutant proteins of CD73-ND was determined. The SA protein was diluted to 1 μg/mL for coating the ELISA plates, and the biotinylated CD73 protein (CD73-biotin) was used at a concentration of 0.1 μg/mL.

[2] = target: T2, CD73-ND-V137A (human, UniProt P21589 27-317); test: ELISA; decline multiple of EC50 against CD73-ND
T2 construct: Alanine mutant of CD73-ND
T2 sequence: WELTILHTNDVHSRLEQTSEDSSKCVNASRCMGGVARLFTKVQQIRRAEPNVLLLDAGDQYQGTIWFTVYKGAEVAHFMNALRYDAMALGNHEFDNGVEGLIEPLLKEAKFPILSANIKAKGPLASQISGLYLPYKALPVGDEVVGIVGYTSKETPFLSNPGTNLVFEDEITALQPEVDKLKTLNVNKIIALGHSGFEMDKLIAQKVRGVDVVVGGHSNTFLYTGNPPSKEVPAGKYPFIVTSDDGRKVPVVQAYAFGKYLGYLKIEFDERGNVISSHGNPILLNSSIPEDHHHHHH
Experimental: as §1, §2

[3] = target: T3, CD73-ND-his (human, UniProt P21589 27-317); test: ELISA; decline multiple of EC50 against CD73-ND
T3 construct: Biotinylated and captured on streptavidin in the ELISA
T3 sequence: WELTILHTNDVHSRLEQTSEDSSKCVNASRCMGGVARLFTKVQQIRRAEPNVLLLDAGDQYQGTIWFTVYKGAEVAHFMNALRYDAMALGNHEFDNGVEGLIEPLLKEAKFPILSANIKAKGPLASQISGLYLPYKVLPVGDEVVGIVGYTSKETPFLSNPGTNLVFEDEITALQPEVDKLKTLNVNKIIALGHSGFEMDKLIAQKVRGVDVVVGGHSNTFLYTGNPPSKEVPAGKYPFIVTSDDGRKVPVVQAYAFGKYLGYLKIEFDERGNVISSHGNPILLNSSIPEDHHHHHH
Experimental: as §1, §2

[4] = target: T1, CD73-ND-Y132A; test: ELISA, high plateau value (OD 450 nm)
Experimental: as §1, §2

[5] = target: T4, CD73-ND-K136A (human, UniProt P21589 27-317); test: ELISA, high plateau value (OD 450 nm)
T4 construct: Alanine mutant of CD73-ND
T4 sequence: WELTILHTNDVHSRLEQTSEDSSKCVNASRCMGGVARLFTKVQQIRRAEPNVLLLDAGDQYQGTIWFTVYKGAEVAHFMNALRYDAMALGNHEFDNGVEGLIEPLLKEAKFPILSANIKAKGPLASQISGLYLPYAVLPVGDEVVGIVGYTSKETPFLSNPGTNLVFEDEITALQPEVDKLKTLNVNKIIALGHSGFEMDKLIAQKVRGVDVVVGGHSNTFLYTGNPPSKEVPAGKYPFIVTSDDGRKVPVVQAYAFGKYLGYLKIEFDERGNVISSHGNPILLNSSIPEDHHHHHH
Experimental: as §1, §2

[6] = target: T2, CD73-ND-V137A; test: ELISA, high plateau value (OD 450 nm)
Experimental: as §1, §2

[7] = target: T3, CD73-ND-his; test: ELISA, high plateau value (OD 450 nm)
Experimental: as §1, §2

[8] = target: T5, CD73-ND-L138A (human, UniProt P21589 27-317); test: ELISA, high plateau value (OD 450 nm)
T5 construct: Alanine mutant of CD73-ND
T5 sequence: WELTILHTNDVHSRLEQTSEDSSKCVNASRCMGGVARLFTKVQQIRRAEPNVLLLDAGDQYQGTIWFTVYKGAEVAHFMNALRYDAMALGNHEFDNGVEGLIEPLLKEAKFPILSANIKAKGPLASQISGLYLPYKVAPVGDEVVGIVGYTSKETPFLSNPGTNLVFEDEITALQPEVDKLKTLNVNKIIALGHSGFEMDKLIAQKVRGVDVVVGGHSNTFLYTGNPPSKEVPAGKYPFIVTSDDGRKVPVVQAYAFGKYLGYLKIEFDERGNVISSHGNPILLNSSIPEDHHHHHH
Experimental: as §1, §2

B1: 48A11-HuV33 (antibody, human IgG4, V domains shown)
VH: QVQLVQSGAEVKKPGASVKVSCKASGYTFTSYWMHWVRQAPGQGLEWIGEINPSIGRTNYNEKFKSRVTLTRDTSTSTAYMELSSLRSEDTAVYYCARRVYGTMDYWGQGTLVTVSS
VL: DIQMTQSPSSLSASVGDRVTITCKASQDINSYLSWFQQKPGKSPKLLIYRANIWVDGVPSRFSGSGSGQDYTFTISSLQPEDIATYYCLQYDELYTFGQGTKVEIK
notes: Humanized
With B1 the “Ratio(EC50)” value [1] was 69.2 fold, the “Ratio(EC50)” value [2] was 5.9 fold and the “Ratio(EC50)” value [3] was 1 fold. The Top [4] was 0.254, the Top [5] was 2.12 and the Top [6] was 1.6. The Top [7] was 2.08 and the Top [8] was 1.91.
